According to the nanobody polyreactivity screen of Harvey et al. (2022):

Assay: yeast display, Sf9 membrane polyspecificity reagent, FACS + sequencing; frameworks hold sequencing errors
How it was run: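 Galactose-induced (36–48 hours) yeast carrying a synthetic nanobody display library were exposed to 10% biotinylated, detergent-solubilized Sf9 membrane reagent at 4 °C for 1 hour. FACS followed streptavidin microbead enrichment, using low and high (top ~1%) gates for expression (anti-HA) and reagent binding (streptavidin). Colony PCR, MiSeq 2 × 250 sequencing and CDR-length filtering followed. Labels for polyreactivity reflect the gate of origin.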

| Sequence | polyreactivity (PSR sort gate) |
| --- | --- |
| QVQLVESGGGLVQAGGSLRLSCAASGLTLETNAMGWYRQAPGKERELVAGITYSGGTTYYADSVKGRFTISRDNAKNSVYLQINSLKPDDTAVYDCNAGPLRSGRYTYYYWGQGTQVTVSS | low polyreactivity |
| QVQLVESGGGLVQAGGSLRLSCAASGLTLGRYAMGWYRQAPGNERELVAVITGGGSTNYADSVKGRFTISRDNAKNTVYIQLNSLKPADTAVYYCAVRGGIFQTLSTWYRYYYCGQGTQVTVSS | high polyreactivity |
| QVQLVESGGGLVQAGGSLRLSCAASGLTLGSYAMGWYRQAPGKERELVAAISRRSGRTYYADSVKGRFTISRDNAKNTVYLKMNSLKPEDTAVDYCNRGYTAQVYTEFDYWGQGTQVTVSS | low polyreactivity |
| QVQLVESGGGLVQAGGSLRLSCAASGLTLHGNAMGWYSQAPGKERGLVATITSSGGSTFYADSVKGRFTISRDNAKNTVSLQMNSLKPEDTAVFYCNADAPYSDDYYVRFDYWGQGTQVTVSS | low polyreactivity |
| QVQLVESGGGLVQAGGSLRLSCAASGLTLKTYAMGWYRQAPGKERELVAGISASGGSTYYADSVKGRFTISRDIAKNTVYLQLNSLKPVDTAVYYCAKVTRAYRAYYYWGQGTQVTVSS | high polyreactivity |
| QVQLVESGGGLVQAGGSLRLSCAASGLTLNYYAMGWYRQAPGKERELVASISRSGGRTYYADSVKGRFTISRVNAKNTVYLQMNSLKPDDSAVYYCNADWYRGRYDYWGQGTQVTVSS | high polyreactivity |
| QVQLVESGGGLVQAGGSLRLSCAASGLTLPSYVMGCYRQAPGKERELVAAISNSGGSTYYADSVKGRFTISRDTAKNTVYLQMNSLKPEDTAVYYCAAVYGYLLYFLLLPFTRDDYWGQGTQVTVSS | high polyreactivity |
| QVQLVESGGGLVQAGGSLRLSCAASGLTLRNYAKGWYREAPGKDRELVAAITTGGGRTFYADSVKGRFTISRDKAKNTVYLETNSLNPEDTAVYYCAAERAILSSDKQSLWRFDYWGQGTQVTVSS | low polyreactivity |
| QVQLVESGGGLVQAGGSLRLSCAASGLTLRNYAMGWYRQAPGKERELVAAITTGGGRTYYADSVKGRFTISRDYAKNTVFLQMKSLKPEDTAVYYCAAEGAILSSDKQSLWRFDYWGQGTQVTVSS | low polyreactivity |
| QVQLVESGGGLVQAGGSLRLSCAASGLTLRTNSMRLYIQAPGKERELVAAISRSGVRTYYAHSVKGRFTISRDNAKNTVYLQMNSLKPEDTAVYYCNAEFSPYPYDYWGQGTQVTVSS | high polyreactivity |
| QVQLVESGGGLVQAGGSLRLSCAASGLTLSGNAMGWYRQAPGKETELVAAITGRGGSTTYADSVKGRFTISRDNAKTTVYLQMNSLKPEDTAVYYCAADHAWYSLFDYWGQGTQVTVSS | low polyreactivity |
| QVQLVESGGGLVQAGGSLRLSCAASGLTLSYYAMGWYRPAPGKEMELVAAISSGGSTYYADSVKGRFTISRDNAKNTVYLQMNSLKPEDTAVYYCAAQWWRLYWEYYYWGQGTQVTVSS | low polyreactivity |
| QVQLVESGGGLVQAGGSLRLSCAASGLTLTYYAMGWYRQAPGKERELVAAISSSGGSTYYADSVKGRFTISRDNAKNTVYLQMNSLKPEDTAVYYCAARDWASHTPFDYWGQGTQVTVSS | high polyreactivity |
| QVQLVESGGGLVQAGGSLRLSCAASGLTMTWNSMGWYRQAPGKERELVAAIRWRGSSTYYADSVKGRFTISRDNAKNTVYLQLNSLKPEDTAVYYCAAEPRYYHVGYEYDNWGQGTQVTVSS | high polyreactivity |
| QVQLVESGGGLVQAGGSLRLSCAASGLTSIHYMGWYRQAPGKERELVATITSSTGSTYYADSVKGRFTISRDNAKNTVYLQMNSLKPEDTAVYYCAAESFGADGPYQPSYDYWGQGTQVTVSS | low polyreactivity |
| QVQLVESGGGLVQAGGSLRLSCAASGLTSVYNAMGWYRQAPGKERELVAAISWRGGRTYYADSVKGRFTISRDNAKNTVYLQMNSLKPEDTAVYYCARGYYTRPYYNPVFGYNYWGQGTQVTVSS | high polyreactivity |
| QVQLVESGGGLVQAGGSLRLSCAASGLTVVIYAMGWYRKAPGKERELVARITCSGGSTYYADSVKGRFTISRDNAKNTVYLQMISLQPEVTAVYYCAARRFYYYNAVYDYWGQGTQVTVSS | low polyreactivity |
| QVQLVESGGGLVQAGGSLRLSCAASGLTYWAYAMGWYRQAPGKERDFVAAISWSGDSTYYADSVKGRYTISRDNAKNTVYLQMNSLKPEDTAVYYCAAEWYYVYIAPYDYLGQGTQVTVSS | low polyreactivity |
| QVQLVESGGGLVQAGGSLRLSCAASGMIFTLYAMGWNRQAPGKERELVAGIDASGGSTSYADSVKGRFTISRDNAKNTVYLQMNSLKPEDTAVYYCAARILPYGYDYWGQGTQVTVSS | low polyreactivity |
| QVQLVESGGGLVQAGGSLRLSCAASGMILGVNVMGWYRQAPGKERELVAAISGGGRTYYADSVKGRFTISRDNAKNTVYLLMNSLKPEDTAVYYCAARVYSLGYGGDYWGQGTHVTVSS | high polyreactivity |
| QVQLVESGGGLVQAGGSLRLSCAASGNAMGWYRPAPGKERELVAAITRRGGSTYYADSVKGRFTISRDNAKNTVYLQMNSLKPEDSAVYYCAADNPSYNLWYGYWGLGTQVTVSS | low polyreactivity |
| QVQLVESGGGLVQAGGSLRLSCAASGNIFADYAMGWYRQAPGKERELVAAISRGGITSYADSVKGRFTISRDNAKNTVYLQMNSLKPEDTAVYYCATDRYDVYDSLGFGYWGQGTQVTVSS | low polyreactivity |

| Sequence | polyreactivity (PSR sort gate) |
| --- | --- |
| QVQLVESGGGLVQAGGSLRLSCAASGNIFANYAMGWYRQAPGKERELVAAIRWSASRPYYADSVKGRFTISRDNAKNTVYLQMNSLKPEDTAVYYCAATIYTFWDYYYDYWGQGTQVTVSS | high polyreactivity |
| QVQLVESGGGLVQAGGSLRLSCAASGNIFARYAMGWYRQAPGKEREMVARISESGGRTYYADSVKARFTISRDNAKNTVYLQMNSLKPEDTAVYYCADRRYIQYGFKFYYWGQGTQLTVSS | high polyreactivity |
| QVQLVESGGGLVQAGGSLRLSCAASGNIFDSYGMGWYRQAPGKERELVATINTSSGSTYYADSVKGRFTISRDNAKNTVYIQMNSLKPEDTAVYYCAAEWYPYTWGYGYWGQGTQVTVSS | low polyreactivity |
| QVQLVESGGGLVQAGGSLRLSCAASGNIFDYYAMGWYRQAPGKERELVAAISTGTSTYADSVKGRFTISRDNAKNTVYLQMNSLKPQDTAVYYCAADVGIRPLNYNPYNYWGQGTQVTVSS | low polyreactivity |
| QVQLVESGGGLVQAGGSLRLSCAASGNIFFGYAMGWYRQAPGKEREYVATITKIGGSTYYADSVKGRFTISRDNAKNTVYLQMNSLKPEDTAVYYCAARLGHSVNPGGERWDVEYWGQGTQVTVSS | low polyreactivity |
| QVQLVESGGGLVQAGGSLRLSCAASGNIFFRYTMGWYRQAPGKERELVAASSASGGSTYYADSVKGRFTISRDNAKNTVYLQMNSLKPEDTAVYYCAARILHYTSEYYYWGQGTQVTVSA | high polyreactivity |
| QVQLVESGGGLVQAGGSLRLSCAASGNIFGAYAMGWYRQAPGKERELVATINWSGTRTYADSVKGRFTISRDNAKNTVYLQMNSLKPEDTAVYYCATKIAGRYRTRYYWGQGTQVTVSS | high polyreactivity |
| QVQLVESGGGLVQAGGSLRLSCAASGNIFGHYTMGGYRQAPGKERELVAAISRTGGRTYYADSVKGRFTISRDNAKKTVYLQMNSLKPEDTAVYYCAADKGGTYFNGDSWGQGTQVTVSS | high polyreactivity |
| QVQLVESGGGLVQAGGSLRLSCAASGNIFIYNAMGWYREAPGKERELVAVISNSGSTYYADSVKGRFTISRDNAKNTVYLQMHSLKPEDSAVYYCNKDGGGDSYWYDYWGQGTHVTVSS | low polyreactivity |
| QVQLVESGGGLVQAGGSLRLSCAASGNIFKHYAMGWYRQAPGKERELVAAITWSGGSTHYADSVKGRFTISRDNAKNTVYFQMNSLKPEDTAVSYCAARGWWPGTKWTRYDYWGQGTQVTVSS | high polyreactivity |
| QVQLVESGGGLVQAGGSLRLSCAASGNIFLFYAMGWYRQAPGKERELVATLSWRGVGTYYADSVKGRFTISRDKAKNTGYIQMNSLKPEDTAVYYCAARGVWPEYDYWGQGTQVTVSS | low polyreactivity |
| QVQLVESGGGLVQAGGSLRLSCAASGNIFPDYAMGWYRQAPGKERELVAAISWSGGSTYYADSVKGRFTISRDNAKNTVYLQMNSLKPEETAVYYCAAGRRGRSYNRIRYDYWGQGTQVTVSS | high polyreactivity |
| QVQLVESGGGLVQAGGSLRLSCAASGNIFPYYAMGWYRQAPGKERELVASITWSGGRTYYADSVKGRFTISRDNAKNTVYLQMNSLKPEDTAVYYCAKEHHRTGQGRDYDYWGQGTQVTVSS | low polyreactivity |
| QVQLVESGGGLVQAGGSLRLSCAASGNIFQRYAMGWYRQAPGKERELVAAISGNGGNTFYADSVKGRFTISRDNAKNSVYLQMNSLKPEDTAVYYCNTVYVVYGYDYWGQGTQVTVSS | high polyreactivity |
| QVQLVESGGGLVQAGGSLRLSCAASGNIFQRYAMGWYRQAPGKERELVAAISYSGARTYYADSVKGRFTISRDNAKNTVYLQMNSLKPEDTAVYYCATYGGLTKFRLAYDYWGQGTQVTVSS | high polyreactivity |
| QVQLVESGGGLVQAGGSLRLSCAASGNIFRINGMGWYRQAPGKERELVAAISFSGGSTYYADSVKGRFTISRDNAKNTVYLQMNSLKPEDTAVYYCNADSTKGWYHDYDYWGQGTQVTVSS | low polyreactivity |
| QVQLVESGGGLVQAGGSLRLSCAASGNIFRRYAMGWYRQAPGKDRELVAAISISGGNTYYADSVKGRFTISRDNAKNTVYLQMNSLKREDTAVYYCNARLRWYPGYDYWGQGTQVTVSS | high polyreactivity |
| QVQLVESGGGLVQAGGSLRLSCAASGNIFRRYAMGWYRQAPGKERELVAAITWSGGSTYYADSVKGRFTISRDNAKNTVYLQMNSLKPEDTAVYYCAARRFWHYGYPGAYIGFGYWGQGTQVTVSS | high polyreactivity |
| QVQLVESGGGLVQAGGSLRLSCAASGNIFRSYAMGWYRQAPGKERELVAAISSRGGSTYYADSVKGRFTISRDNAKNTVYLQMNSLKPEDTAVYYCNAPSTQQGPKYDYWGQGTQVTVSS | low polyreactivity |
| QVQLVESGGGLVQAGGSLRLSCAASGNIFRSYMGWYRQAPGKERELVASISRRGGSTYYADSVKGRFTISRDNAKNTVYLQMNSLKPEDTAVYYCARRWSWVNGVFGYYWGQGTQVTVSS | high polyreactivity |
| QVQLVESGGGLVQAGGSLRLSCAASGNIFSANAMVWDRQAPGKEREFVAAISSTGGSTYYADSVKGRFTISRDNAKNTVYLQMNSLIPEDTAVYYCAAYIRRYLHYDYWGQGSQVTVSS | high polyreactivity |
